Legend:
Assay in all cases: SPR
N49P7-FR IgG1 = molecular target: N49P7-FR IgG1
eN49P7-FRv1-23 IgG1 = molecular target: eN49P7-FRv1-23 IgG1
N49P7 IgG1 = molecular target: N49P7 IgG1
Chain of N49P7 IgG1 (heavy, as listed by the source, chain 1 of 2): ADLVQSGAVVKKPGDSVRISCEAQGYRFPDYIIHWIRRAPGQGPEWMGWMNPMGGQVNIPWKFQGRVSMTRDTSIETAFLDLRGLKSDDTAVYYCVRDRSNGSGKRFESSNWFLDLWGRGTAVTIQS
Chain of N49P7 IgG1 (light, as listed by the source, chain 2 of 2): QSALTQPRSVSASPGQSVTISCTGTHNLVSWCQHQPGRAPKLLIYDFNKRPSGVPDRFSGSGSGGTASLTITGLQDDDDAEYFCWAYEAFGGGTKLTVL

Chain of eN49P7-FRv1-23 IgG1 (VH, as listed by the source, chain 1 of 2): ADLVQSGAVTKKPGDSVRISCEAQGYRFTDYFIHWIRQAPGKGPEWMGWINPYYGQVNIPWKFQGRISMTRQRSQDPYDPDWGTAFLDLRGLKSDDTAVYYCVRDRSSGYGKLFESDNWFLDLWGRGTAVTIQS
Chain of eN49P7-FRv1-23 IgG1 (VL, as listed by the source, chain 2 of 2): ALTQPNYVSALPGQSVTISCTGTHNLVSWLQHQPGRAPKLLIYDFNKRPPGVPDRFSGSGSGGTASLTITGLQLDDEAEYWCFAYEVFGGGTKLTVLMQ
Chain of N49P7-FR IgG1 (VH, as listed by the source, chain 1 of 2): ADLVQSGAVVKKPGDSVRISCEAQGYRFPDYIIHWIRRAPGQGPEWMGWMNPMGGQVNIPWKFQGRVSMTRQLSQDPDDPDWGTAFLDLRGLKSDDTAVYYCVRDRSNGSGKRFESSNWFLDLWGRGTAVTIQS
Chain of N49P7-FR IgG1 (VL, as listed by the source, chain 2 of 2): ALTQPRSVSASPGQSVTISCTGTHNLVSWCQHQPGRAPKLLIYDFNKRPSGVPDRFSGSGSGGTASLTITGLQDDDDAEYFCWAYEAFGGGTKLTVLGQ

Substance: HIV gp120 CH119 (clade BC) (natural protein)
- Kd (N49P7-FR IgG1): 110 nM
- koff (N49P7-FR IgG1): 0.0008 s⁻¹
- kon (N49P7-FR IgG1): 7400 M⁻¹ s⁻¹
- Kd (eN49P7-FRv1-23 IgG1): 20 nM
- koff (eN49P7-FRv1-23 IgG1): 0.00053 s⁻¹
- kon (eN49P7-FRv1-23 IgG1): 27000 M⁻¹ s⁻¹

Substance: HIV gp120 93TH057 (clade AE) (natural protein)
- Kd (N49P7-FR IgG1): 19 nM
- koff (N49P7-FR IgG1): 0.0022 s⁻¹
- kon (N49P7-FR IgG1): 120000 M⁻¹ s⁻¹
- Kd (eN49P7-FRv1-23 IgG1): 29 nM
- koff (eN49P7-FRv1-23 IgG1): 0.0015 s⁻¹
- kon (eN49P7-FRv1-23 IgG1): 51000 M⁻¹ s⁻¹

Substance: HIV gp120 6041.v3 (clade AC) (natural protein)
- Kd (N49P7-FR IgG1): 190 nM
- koff (N49P7-FR IgG1): 0.0026 s⁻¹
- kon (N49P7-FR IgG1): 14000 M⁻¹ s⁻¹
- Kd (eN49P7-FRv1-23 IgG1): 24 nM
- koff (eN49P7-FRv1-23 IgG1): 0.001 s⁻¹
- kon (eN49P7-FRv1-23 IgG1): 44000 M⁻¹ s⁻¹
- Kd (N49P7 IgG1): 100 nM
- koff (N49P7 IgG1): 0.0032 s⁻¹
- kon (N49P7 IgG1): 31000 M⁻¹ s⁻¹

Substance: HIV gp120 IAVI-C22 (clade C) (natural protein)
- Kd (N49P7-FR IgG1): > 1000 nM
- koff (N49P7-FR IgG1): 0.0014 s⁻¹
- kon (N49P7-FR IgG1): 200 M⁻¹ s⁻¹
- Kd (eN49P7-FRv1-23 IgG1): 65 nM
- koff (eN49P7-FRv1-23 IgG1): 0.00092 s⁻¹
- kon (eN49P7-FRv1-23 IgG1): 14000 M⁻¹ s⁻¹
- Kd (N49P7 IgG1): 230 nM
- koff (N49P7 IgG1): 0.0011 s⁻¹
- kon (N49P7 IgG1): 4900 M⁻¹ s⁻¹

Substance: HIV gp120 Ce1176 (clade C) (natural protein)
- Kd (N49P7-FR IgG1): 63 nM
- koff (N49P7-FR IgG1): 0.00059 s⁻¹
- kon (N49P7-FR IgG1): 9400 M⁻¹ s⁻¹
- Kd (eN49P7-FRv1-23 IgG1): 17 nM
- koff (eN49P7-FRv1-23 IgG1): 0.00069 s⁻¹
- kon (eN49P7-FRv1-23 IgG1): 42000 M⁻¹ s⁻¹

Substance: HIV gp120 CAP45 (clade C) (natural protein)
- Kd (N49P7-FR IgG1): 140 nM
- koff (N49P7-FR IgG1): 0.0017 s⁻¹
- kon (N49P7-FR IgG1): 12000 M⁻¹ s⁻¹
- Kd (eN49P7-FRv1-23 IgG1): 31 nM
- koff (eN49P7-FRv1-23 IgG1): 0.0031 s⁻¹
- kon (eN49P7-FRv1-23 IgG1): 100000 M⁻¹ s⁻¹

Substance: HIV gp120 TRO.11 (clade B) (natural protein)
- Kd (N49P7-FR IgG1): 120 nM
- koff (N49P7-FR IgG1): 0.0012 s⁻¹
- kon (N49P7-FR IgG1): 9900 M⁻¹ s⁻¹
- Kd (eN49P7-FRv1-23 IgG1): 44 nM
- koff (eN49P7-FRv1-23 IgG1): 0.00074 s⁻¹
- kon (eN49P7-FRv1-23 IgG1): 17000 M⁻¹ s⁻¹

Substance: HIV gp120 BJOX2000 (clade BC) (natural protein)
- Kd (N49P7-FR IgG1): > 1000 nM
- koff (N49P7-FR IgG1): 0.0025 s⁻¹
- kon (N49P7-FR IgG1): 280 M⁻¹ s⁻¹
- Kd (eN49P7-FRv1-23 IgG1): 50 nM
- koff (eN49P7-FRv1-23 IgG1): 0.00092 s⁻¹
- kon (eN49P7-FRv1-23 IgG1): 18000 M⁻¹ s⁻¹
- Kd (N49P7 IgG1): > 1000 nM
- koff (N49P7 IgG1): 0.0024 s⁻¹
- kon (N49P7 IgG1): 680 M⁻¹ s⁻¹

Substance: HIV gp120 CNE8 (clade AE) (natural protein)
- Kd (N49P7-FR IgG1): 15 nM
- koff (N49P7-FR IgG1): 0.0013 s⁻¹
- kon (N49P7-FR IgG1): 88000 M⁻¹ s⁻¹
- Kd (eN49P7-FRv1-23 IgG1): 47 nM
- koff (eN49P7-FRv1-23 IgG1): 0.0011 s⁻¹
- kon (eN49P7-FRv1-23 IgG1): 24000 M⁻¹ s⁻¹
- Kd (N49P7 IgG1): 73 nM
- koff (N49P7 IgG1): 0.00079 s⁻¹
- kon (N49P7 IgG1): 11000 M⁻¹ s⁻¹
